Measured values: patent publication US20050226874A1 (CENTRE NATIONAL DE LA RECHERCHE SCIENTIFIQUE CNRS A …, published 2005)
Substitutions are numbered along the chain they refer to.

Tests used:
[1] = biological target: T1, biotinylated human recombinant CD4 (Repligen Inc.) (human, UniProt P01730 26-394, limits assumed, biotinylated (sites not given)); assay: Spot peptide on cellulose probed with biotinylated CD4
T1 construct: Probe of the Spot membranes, used at 1 µg/ml; also called biotinylated CD4; CD4 probe
Description: (§1) The antigenic reactivity of the peptides bound to the cellulose membrane was tested with biotinylated CD4 (1 μg/ml) under conditions that led to the production of a blue precipitate for the reactive spots as described in [Bès, 2001b].

[2] = biological target: T1, biotinylated human recombinant CD4 …; assay: Spot peptides on cellulose membrane probed with biotinylated CD4
Description: as §1

[3] = biological target: T2, soluble human recombinant CD4 expressed in baculovirus (human, UniProt P01730 26-396, limits assumed); assay: SPR (BIAcore), CD4 immobilised, Exp. 1
T2 construct: Coated on plates for the ELISA and covalently immobilised on the sensor for BIAcore; Only called soluble; also called soluble CD4; CD4 expressed in the baculovirus
Description: (§2) The kinetic parameters of the binding of CD4 to the paratope of the Fab fragments of the 13B8.2 antibody were determined by analysis of the surface plasmon resonance by means of a BIAcore analyzer (BIAcore AB, Uppsala, Sweden).

[4] = biological target: T2, soluble human recombinant CD4 expressed …; assay: SPR (BIAcore), CD4 immobilised, Exp. 2; Exp. 2
Description: as §2

[5] = biological target: T3, membranous CD4 (wild human CD4 expressed on cells) (human, UniProt P01730 26-458); assay: flow cytometry, T A2.01/CD4 cells, Fab at 1 µg/ml, fluorescein-labeled anti-kappa chain antibody
T3 construct: whole, on cells; also called T A2.01/CD4 cells; T AN2.01/CD4 cells
Description: The binding of the wild or mutant Fabs to the membranous CD4 was evaluated by flow cytometry.
In order to determine the binding of the fragments to the membranous CD4, T AN2.01 CD4+ cells were analyzed by indirect immunofluorescent labeling and flow cytometry (FIG. 4).

[6] = biological target: T2, soluble human recombinant CD4 expressed …; assay: ELISA on coated baculovirus-expressed soluble CD4, anti-human kappa-peroxidase, A490 [panel Mutants CDR-H 13B8.2]
Description: A 1:500 dilution of the CD4 fraction expressed by the baculovirus in 0.1 M carbonate/bicarbonate buffer, pH 9.6, was incubated overnight at 4° C. on 96-well enzymatic immunoanalysis plates (Nunc, Paisley, UK). Four washings with the phosphate saline buffer (PBS) 160 mM pH 7.2, containing 0.1% Tween 20 (PBD-T), were performed before and after the saturation of the microplates, with powdered skim milk at a concentration of 1% in the PBS-T for one hour at 37° C.

B1: alanine analogue of peptide 49GVIWRS54 with Arg53 replaced by Ala (peptide)
peptide: GVIWAS
notes: Spot peptide on cellulose membrane; also called GVIWAS
- binding result [1]: no binding

B2: alanine analogue of peptide 49GVIWRS54 with Val50 replaced by Ala (peptide)
peptide: GAIWRS
notes: Spot peptide on cellulose membrane; also called GAIWRS
- binding result [2]: binds

B3: alanine analogue of peptide 49GVIWRS54 with Ser54 replaced by Ala (peptide)
peptide: GVIWRA
notes: Spot peptide on cellulose membrane; also called GVIWRA
- binding result [1]: binds

Binder: WASGIT (also called WASGIT) [alanine analogue of peptide 52WRSGIT57 with Arg53 replaced by Ala (dotted bar R53)]
- binding result [2]: no binding

B4: mutant Fab Y36-L of the 13B8.2 antibody (Fab, V domains shown)
VH: QVQLKQSGPGLVQPSQSLSITCTVSGFSLTTFGVHWVRQSPGKGLEWLGVIWRSGITDYNVPFMSRLSITKDNSKSQVFFKLNSLQPDDTAIYYCAKNDPGTGFAYWGQGTLVTVSA
VL: DIQMTQSPASLSASVGETVTFTCRASENIYSYLAWAQQKQGKSPQLLVHDAKTLAEGVPSRFSGGGSGTQFSLKINTLQPEDFGTYYCQHHYGNPPTFGGGTKLEIK
notes: Chimeric Fab with human CH1-γ1 and Cκ; baculovirus/Sf9
- Kd [3]: 25.4 nM
- koff [3]: 0.000651 s⁻¹
- kon [3]: 25600 M⁻¹ s⁻¹
- Kd [4]: 11.4 nM
- koff [4]: 0.00057 s⁻¹
- kon [4]: 50000 M⁻¹ s⁻¹
- percent of cells under the marker bar of the histogram [5]: 44.6%

B5: mutant Fab Y102-H of the 13B8.2 antibody (Fab, V domains shown)
VH: B4 VH with Y106A
VL: B4 VL with A36Y
notes: as for B4
- binding result [6]: binds
